Experiments:
[1] = molecular target: T1, FMNL1/KW13 peptide on HLA-A*02:01 (human); test: multimer staining
T1 peptide: RLPERMTTL

[2] = molecular target: T2, FRL (murine FMNL1 homologue) peptide on HLA-A*02:01 (human); test: killing
T2 peptide: RLPERMNTL

B1: TCR of T cell clone SC22 (Vα14J41; Vβ14J2.5) (TCR)
alpha TRAV38-2/DV8*01; Vα14 TRAJ41*01; J41 CDR3: AYENSGYALNF
beta TRBV27*01; Vβ14 TRBJ2-5*01; Jβ2.5 CDR3: ASSFLGETQYF
B1: recognises [1]; recognises [2].

Reference: patent US20100055117A1 (published 2010)
